Assay results from US20260347506 (published 2026).
Where “and” joins values, the source holds several entries; their conditions need not be identical. Identical values can stand only once.

T1: human IgE (human, UniProt P01854)
T1 chain: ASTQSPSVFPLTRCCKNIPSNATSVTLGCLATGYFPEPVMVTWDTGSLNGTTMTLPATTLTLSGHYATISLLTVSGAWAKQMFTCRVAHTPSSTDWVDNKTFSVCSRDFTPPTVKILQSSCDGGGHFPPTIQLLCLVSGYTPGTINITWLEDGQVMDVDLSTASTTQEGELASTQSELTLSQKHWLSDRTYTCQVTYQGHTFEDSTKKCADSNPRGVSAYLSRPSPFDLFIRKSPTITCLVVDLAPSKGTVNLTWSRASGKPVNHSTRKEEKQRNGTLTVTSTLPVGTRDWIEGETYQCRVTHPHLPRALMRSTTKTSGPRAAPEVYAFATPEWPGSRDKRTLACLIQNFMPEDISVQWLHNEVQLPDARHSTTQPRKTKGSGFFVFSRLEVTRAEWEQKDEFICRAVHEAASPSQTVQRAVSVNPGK


Key:
human IgE [1] = target: T1, human IgE; assay: ELISA, pH 5.5
human IgE [2] = target: T1, human IgE; assay: ELISA, pH 7.4
human IgE [3] = target: T1, human IgE; assay: competition ELISA
human IgE [4] = target: T1, human IgE; assay: SPR, pH 6.0
human IgE [5] = target: T1, human IgE; assay: SPR, pH 7.4
human IgE [6] = target: T1, human IgE; assay: competition SPR, pH 6.0
human IgE [7] = target: T1, human IgE; assay: competition SPR, pH 7.4
human IgE [8] = target: T1, human IgE; assay: competition SPR, pH 6.0
human IgE [9] = target: T1, human IgE; assay: competition SPR, pH 7.4
human IgE [10] = target: T1, human IgE; assay: competition ELISA, pH 6.0
human IgE [11] = target: T1, human IgE; assay: competition ELISA, pH 7.4
human IgE [12] = target: T1, human IgE; assay: competition ELISA, pH 7.4
human IgE [13] = target: T1, human IgE; assay: competition ELISA, pH 6.0
human IgE [14] = target: T1, human IgE; assay: competition SPR, pH 7.4
human IgE [15] = target: T1, human IgE; assay: competition SPR, pH 5.5
human IgE [16] = target: T1, human IgE; assay: SPR

Binder	IC50 (human IgE [7])	IC50 (human IgE [8])	IC50 (human IgE [12])	IC50 (human IgE [13])	further results
18E2_VLY34H_MG (18E2VL) (antibody, V domains shown) VH: QLLESGGGLVQPGGSLRLSCAASGFTFSSYVMSWVRQAPGKGLEWVSSIYHDGSHTYYADFVKGRFTISRDNSKNTLYLQMNSLRAEDTAVYYCAKGTSYSGSYYYTDPFFGSWGQGTLVTVSS VL: SSELTQDPAVSVALGQTVRITCQGDRLGSRYIHWYQQKPGQAPVLVIYDDDRRPSGIPDRFSGSSSGNTASLTITGAQAEDEADYYCQSADSSGNPVFGGGTQLTVL	–	–	–	–	EC50 (human IgE [1]): 0.0269 µg/mL and 0.0323 µg/mL; EC50 (human IgE [2]): 0.02 µg/mL and 0.0163 µg/mL; IC50 (human IgE [3]): 6.06 nM
18E2VLHis MG hIgG1-ABDEG (antibody, V domains shown) VH: QLLESGGGLVQPGGSLRLSCAASGFTFSSYVMSWVRQAPGKGLEWVSSIYHDGSHTYYADFVKGRFTISRDNSKNTLYLQMNSLRAEDTAVYYCAKGTSYSGSYYYTDPFFGSWGQGTLVTVSS VL: SSELTQDPAVSVALGQTVRITCQGDRLGSRYIHWYQQKPGQAPVLVIYDDDRRPSGIPDRFSGSSSGNTASLTITGAQAEDEADYYCQSADSSGNPVFGGGTQLTVL	–	–	–	–	Kd (human IgE [4]): 205 nM; Kd (human IgE [5]): 5.91 nM
13E4 (antibody, V domains shown) VH: ELQLVESGGGLVQPGGSLRLSCAASGFTFSSYVMSWVRQAPGKGLEWVSSIYHDGSHTYYADFVKGRFTISRDNAKNTLYLQMNSLKSEDTAVYYCASGTSYSGSYYYTDPFFGSWGQGTQVTVSS VL: HSAVTQPSALSVTLGQTAKITCQGGSLGSNYAYWYQQKPGQAPVLVIYDDDSRPSGIPERFSGSSSGGTATLTISGAQAEDEGDYYCQSADSNGNAVFGGGTHLTVL	2.3 µg/mL	2.5 µg/mL	0.00682 µg/mL	0.0114 µg/mL	IC50 (human IgE [6]): 1.54 nM; IC50 (human IgE [9]): 1.62 nM; IC50 (human IgE [10]): 12.9 nM; IC50 (human IgE [11]): 10.3 nM
VL18B9_Y49H (18B9His) (antibody, V domains shown) VH: QVQLVESGGGLVQPGGSLRLSCAASGFTFSSYVMSWVRQAPGKGLEWVSSIYSDGSHTYYADSVKGRFTISRDNAKNTLYLQMNSLKSEDTAVYYCAKNLEHYSGSYYYTDPRYDYWGQGTQVTVSS VL: SSALTQPSALSVTLGQTAKITCQGGSLGSSYVHWYQQKPGQAPVLVIHDGDSRPSGIPERFSGSSSGGTATLTISGAQAEDEDDYYCQSADSSGNAVFGGGTHLTVL	2.7 µg/mL	58.5 µg/mL	0.19 µg/mL	3.02 µg/mL	IC50 (human IgE [14]): 0.749 µg/mL; IC50 (human IgE [15]): 4.06 µg/mL
18B9His-hIgG1-ABDEG (antibody, V domains shown) VH: QVQLVESGGGLVQPGGSLRLSCAASGFTFSSYVMSWVRQAPGKGLEWVSSIYSDGSHTYYADSVKGRFTISRDNAKNTLYLQMNSLKSEDTAVYYCAKNLEHYSGSYYYTDPRYDYWGQGTQVTVSS VL: SSALTQPSALSVTLGQTAKITCQGGSLGSSYVHWYQQKPGQAPVLVIHDGDSRPSGIPERFSGSSSGGTATLTISGAQAEDEDDYYCQSADSSGNAVFGGGTHLTVL	2.9 µg/mL	52.9 µg/mL	0.13 µg/mL	2.55 µg/mL	–
18E2His2-hIgG1-ABDEG (antibody, V domains shown) VH: QLQLVESGGGLVQPGGSLRLSCAASGFTFSSYVMHWVRQAPGKGLEWVSSIYHDGSHTYYADFVKGRFTISRDNAKNTLYLQMNSLKSEDTAVYYCASGTSYSGSYYYTDPFFGSWGQGTQVTVSS VL: NFMLTQPSALSVTLGQTARITCQGDRLGSRYIHWYQQKPPQAPVLVIHDDDRRPSGIPERFSGSSSGGTATLTISGAQAEDDGDYYCQSADSSGNPVFGGGTHLTVL	5.8 µg/mL	7320 µg/mL	1.49 µg/mL	26.6 µg/mL	–
18E2_VH_S35H_VL_Y34H (18E2His2) (antibody, V domains shown) VH: QLQLVESGGGLVQPGGSLRLSCAASGFTFSSYVMHWVRQAPGKGLEWVSSIYHDGSHTYYADFVKGRFTISRDNAKNTLYLQMNSLKSEDTAVYYCASGTSYSGSYYYTDPFFGSWGQGTQVTVSS VL: NFMLTQPSALSVTLGQTARITCQGDRLGSRYIHWYQQKPPQAPVLVIHDDDRRPSGIPERFSGSSSGGTATLTISGAQAEDDGDYYCQSADSSGNPVFGGGTHLTVL	6 µg/mL	6310 µg/mL	2.48 µg/mL	77.2 µg/mL	IC50 (human IgE [14]): 1.56 µg/mL; IC50 (human IgE [15]): 9.86 µg/mL
13E4-hIgG1-ABDEG (antibody, V domains shown) VH: ELQLVESGGGLVQPGGSLRLSCAASGFTFSSYVMSWVRQAPGKGLEWVSSIYHDGSHTYYADFVKGRFTISRDNAKNTLYLQMNSLKSEDTAVYYCASGTSYSGSYYYTDPFFGSWGQGTQVTVSS VL: HSAVTQPSALSVTLGQTAKITCQGGSLGSNYAYWYQQKPGQAPVLVIYDDDSRPSGIPERFSGSSSGGTATLTISGAQAEDEGDYYCQSADSNGNAVFGGGTHLTVL	3 µg/mL	3.2 µg/mL	0.0065 µg/mL	0.0106 µg/mL	–
OMA VH15-VL3 (antibody, V domains shown) VH: EVQLVESGGGLVQPGGSLRLSCAVSGYSITSGHRWEWIRQAPGKGLEWVASIHYDGSTNYNPSVKGRITISRDDSKNTFYLQMNSLRAEDTAVYYCARATHYFGHWHFAVWGQGTLVTVSS VL: DIQLTQSPSSLSASVGDRVTITCRASQSVDYDGDSYMNWYQQKPGKAPKLLIEWGSYLRSGVPSRFSGSGSGTDFTLTISSLQPEDFATYYCQQNAEDPYTFGQGTKVEIK	–	–	–	–	Kd (human IgE [16]): 0.0874 pM
